For two substances, percent of input taken up, stoichiometry N (molecules P per molecule C3b) and uptake (cpm) results are on record in paper PMC2190426.

Assay [1] has as its target cell-bound C3b on sheep erythrocytes (EAC4b,3b, called EC3b) (human) (UniProt P01024). Description: radioligand binding.
For assay [2] the target is unchanged. Description: radioligand binding. The source holds these as a separate data set.

Where two headings read alike, the source gives them in different places. Where only a bound is given, the exact number is not on record here.

Sequence of UniProt P01024 (P01024 23-667, chain 1 of 2): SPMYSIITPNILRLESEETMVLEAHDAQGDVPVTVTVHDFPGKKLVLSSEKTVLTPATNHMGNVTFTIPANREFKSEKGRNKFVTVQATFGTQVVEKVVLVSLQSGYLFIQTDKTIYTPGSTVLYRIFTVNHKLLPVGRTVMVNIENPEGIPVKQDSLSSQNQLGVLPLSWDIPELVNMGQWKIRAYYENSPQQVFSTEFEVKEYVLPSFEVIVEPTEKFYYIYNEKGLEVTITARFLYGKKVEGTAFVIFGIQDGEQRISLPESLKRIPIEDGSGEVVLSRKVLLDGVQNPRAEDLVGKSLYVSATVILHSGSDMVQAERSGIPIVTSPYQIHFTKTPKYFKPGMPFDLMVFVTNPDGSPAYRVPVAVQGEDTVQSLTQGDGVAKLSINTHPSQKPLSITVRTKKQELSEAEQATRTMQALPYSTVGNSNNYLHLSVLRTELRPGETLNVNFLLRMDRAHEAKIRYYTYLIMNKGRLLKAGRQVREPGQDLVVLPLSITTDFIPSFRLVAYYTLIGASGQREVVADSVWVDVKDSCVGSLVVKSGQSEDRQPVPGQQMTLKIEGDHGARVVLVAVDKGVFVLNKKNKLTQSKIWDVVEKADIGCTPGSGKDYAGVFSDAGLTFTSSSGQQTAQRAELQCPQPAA
Sequence of UniProt P01024 (P01024 749-1663, chain 2 of 2): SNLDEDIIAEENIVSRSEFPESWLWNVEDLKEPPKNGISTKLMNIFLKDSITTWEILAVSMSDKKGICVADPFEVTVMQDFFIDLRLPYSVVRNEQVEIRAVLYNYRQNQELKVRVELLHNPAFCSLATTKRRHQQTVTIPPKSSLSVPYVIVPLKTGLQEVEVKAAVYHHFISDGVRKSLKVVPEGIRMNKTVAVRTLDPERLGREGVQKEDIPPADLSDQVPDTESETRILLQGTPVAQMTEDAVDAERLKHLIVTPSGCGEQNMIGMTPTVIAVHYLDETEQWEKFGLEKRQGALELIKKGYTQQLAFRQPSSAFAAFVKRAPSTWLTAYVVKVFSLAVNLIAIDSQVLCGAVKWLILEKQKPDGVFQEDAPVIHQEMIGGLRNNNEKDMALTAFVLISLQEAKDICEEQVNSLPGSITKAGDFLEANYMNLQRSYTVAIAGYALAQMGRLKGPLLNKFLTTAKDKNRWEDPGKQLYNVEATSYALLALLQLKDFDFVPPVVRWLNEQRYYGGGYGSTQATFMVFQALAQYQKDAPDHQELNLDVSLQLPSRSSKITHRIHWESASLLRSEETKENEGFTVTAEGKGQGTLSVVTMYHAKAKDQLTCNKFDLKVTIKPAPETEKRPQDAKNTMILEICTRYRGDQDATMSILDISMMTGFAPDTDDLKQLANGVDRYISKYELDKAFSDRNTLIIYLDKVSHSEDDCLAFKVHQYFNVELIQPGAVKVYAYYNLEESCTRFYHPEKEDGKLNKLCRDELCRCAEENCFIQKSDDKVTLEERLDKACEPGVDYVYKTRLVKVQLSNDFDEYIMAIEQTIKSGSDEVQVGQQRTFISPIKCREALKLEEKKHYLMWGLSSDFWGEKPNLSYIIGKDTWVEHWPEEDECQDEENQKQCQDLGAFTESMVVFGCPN

In assay [1], “activated properdin (P) (from UniProt P27918 28-469) (natural protein)” returned a percent of input taken up of less than 1% and a stoichiometry N (molecules P per molecule C3b) of less than 10.

Consider “precursor properdin (pre-P) (from UniProt P27918 28-469) (natural protein)”, for which the uptake (cpm) in assay [2] was 10700 cpm; in assay [1], 378 cpm.
